We go through one sequence from publication PMC12113857.

In the data set the test system is T1, MprA(D51E) D51E (Corynebacterium glutamicum ATCC 13032), ORF:c49de587.
T1 sequence: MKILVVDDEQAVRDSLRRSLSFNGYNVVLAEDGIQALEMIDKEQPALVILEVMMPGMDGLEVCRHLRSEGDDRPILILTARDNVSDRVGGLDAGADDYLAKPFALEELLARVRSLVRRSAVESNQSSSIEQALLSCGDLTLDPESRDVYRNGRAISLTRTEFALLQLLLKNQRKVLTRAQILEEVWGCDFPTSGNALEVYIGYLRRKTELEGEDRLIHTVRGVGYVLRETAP
The data set is described as follows: EMSA. The conditions noted are these: Buffer P: 50 mM Tris-HCl pH 7.5, 50 mM KCl, 10 mM MgCl2, 0.5 mM EDTA, 10% glycerol; 30 min at 20 C; DNA 25-107 nM, protein 0-64-fold molar excess; 6% native ….

As to “CGATACCCTTTTCGTCTTCCAGTCCGTGACAGACTTCCTCCCAATTAAGACGTCCACGCGTTGGAACATATTTCACTTATGCTAACACCTCTTAAGCATAAAGAAGCCAGTTACCTCCTCATTTTAAGAGAAGATAACTGGCTCTTGTTAAATTCTTACCTACAAAAGGTTGTAGGCGATGAATTTAAGGTTTAGAACTGCTCTACGTCCACGAGACCGAGCTGTGCTGCCTTAACCAGACGGCGTGGGATGCGAACGGTCTGACCGTCGATCTTGACCTCCTGAAGGGCGACATTGTCG (double strand) [mprA promoter]”, the binding result is listed as “binds”.
